The values below are quoted from earlier work in patent US12077586B2, “Bispecific antibodies for use in the treatment of hematological malignancies” (LAVA THERAPEUTICS N.V., priority 2018, dated 2024).

First the molecules themselves.
B1: 5C1: Vγ9Vδ2-TCR binding VHH, SEQ ID NO: 142 (protein)
VHH: EVQLVESGGGLVQPGGSLRLSCAASGSIFSNYAMAWFRQAPEKERDFLAAVSWSGGRTYYADSVKGRFTISRDNAKNTVNLQMNSLKPEDTAVYYCAASLSCSGPGCSLEEYDYWGQGTQVTVSS
modifications: antibody sequence
B2: 5G3: Vγ9Vδ2-TCR binding VHH, SEQ ID NO: 141 (protein)
VHH: EVQLVESGGGLVQAGGSLRLSCAASGRTFSSYAMGWFRQAPGKEREFVAAVSWSGGSTYYADSVKGRFTISRDNARNTVYLQMNSLNPEDTAVYYCAASQDCSGPGCYTNEYDSWGQGTQVTVSS
modifications: antibody sequence
B3: 6E3: Vγ9Vδ2-TCR binding VHH, SEQ ID NO: 144 (protein)
VHH: EVQLVESGGGLVQAGGSLRLSCAASGRPFSNYGMGWFRQAPGKKREFVAGISWSGGSTDYADSVKGRLTISRDNAKNTVYLQMNSLKPEDTAVYYCAAVFSGAETAYYPSDDYDYWGQGTQVTVSS
modifications: antibody sequence
B4: 6C1: Vγ9Vδ2-TCR binding VHH, SEQ ID NO: 146 (protein)
VHH: B3 VHH with F47S, L68F
modifications: antibody sequence
B5: 6H3: Vγ9Vδ2-TCR binding VHH, SEQ ID NO: 147 (protein)
VHH: B3 VHH with A24V, K44E, S52T, D59H, S63L, L68F, Y80H, D111T, D112E
modifications: antibody sequence
B6: 6H1: Vγ9Vδ2-TCR binding VHH, SEQ ID NO: 140 (protein)
VHH: EVQLVESGGGLVQAGGSLRLSCAATGRTFSEYAMGWFRQAPGKEREFAAAISWTGSKTYYADSVKGRFTISRDNAKNTVYLQMNSLKPEDTAVYYCAASSDCSGPGCHTEEYDYWGQGTQVTVSS
modifications: antibody sequence

Residue numbers refer to the chain shown, from its start.

The target of one data set is T1, Vδ2 chain (Homo sapiens, UniProt A0JD36).
T1 construct: host or cells: γδ T-cells expressing a Vδ2 chain paired with a non-Vγ9 chain
T1 sequence (A0JD36 with tags, fused parts or gaps): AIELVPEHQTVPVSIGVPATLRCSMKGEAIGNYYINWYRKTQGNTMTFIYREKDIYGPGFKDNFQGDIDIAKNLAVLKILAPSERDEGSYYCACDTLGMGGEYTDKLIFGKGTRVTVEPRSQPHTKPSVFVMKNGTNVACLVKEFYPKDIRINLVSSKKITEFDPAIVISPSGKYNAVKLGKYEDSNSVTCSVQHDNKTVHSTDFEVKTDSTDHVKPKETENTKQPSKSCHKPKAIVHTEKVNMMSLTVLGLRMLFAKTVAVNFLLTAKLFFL
T1 sequence (P07766 23-207 partner): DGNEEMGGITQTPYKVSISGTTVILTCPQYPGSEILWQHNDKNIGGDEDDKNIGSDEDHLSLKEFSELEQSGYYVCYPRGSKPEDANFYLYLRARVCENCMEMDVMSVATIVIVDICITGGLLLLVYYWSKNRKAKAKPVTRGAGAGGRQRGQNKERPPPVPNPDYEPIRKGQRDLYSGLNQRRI
T1 sequence (P09693 23-182 partner): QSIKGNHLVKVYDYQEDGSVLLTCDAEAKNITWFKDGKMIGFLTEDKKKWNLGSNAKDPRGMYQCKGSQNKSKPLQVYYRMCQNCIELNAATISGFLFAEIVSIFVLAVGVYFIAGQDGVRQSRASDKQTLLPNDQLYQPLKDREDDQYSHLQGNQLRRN
T1 sequence (P04234 22-171 partner): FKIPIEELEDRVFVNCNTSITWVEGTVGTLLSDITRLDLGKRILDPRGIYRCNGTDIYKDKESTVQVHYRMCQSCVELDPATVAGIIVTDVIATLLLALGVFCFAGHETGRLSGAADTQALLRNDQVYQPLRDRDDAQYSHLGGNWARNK
T1 sequence (P20963 22-164 partner): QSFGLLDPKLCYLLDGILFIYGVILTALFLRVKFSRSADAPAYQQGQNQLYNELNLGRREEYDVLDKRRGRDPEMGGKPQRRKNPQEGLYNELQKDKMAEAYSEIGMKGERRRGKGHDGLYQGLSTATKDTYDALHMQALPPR
The settings on record: Mean Fluorescence Index class; γδ T-cells expressing Vδ2 chain paired with non Vγ9 chain; cited from earlier work.
For B1, the “Binding, Vδ2+” value was “+/− (“+/−” indicates an MFI of between 1.5 and 4.5)”.
Take B2: the “Binding, Vδ2+” value is listed as “− (“−” indicates a Mean Fluorescence Index (MFI) below 1.5)”.
As to B3, the “Binding, Vδ2+” value is reported as “++ (“++” indicates an MFI above 20)”.
For the molecule B4, the “Binding, Vδ2+” value is recorded as “++ (“++” indicates an MFI above 20)”.
B5: the “Binding, Vδ2+” value is recorded as “++ (“++” indicates an MFI above 20)”.
Consider B6, for which the “Binding, Vδ2+” value is recorded as “− (“−” indicates a Mean Fluorescence Index (MFI) below 1.5)”.

The target in another data set is T2, Vγ9 chain (Homo sapiens, UniProt Q99603, T7A).
T2 construct: host or cells: γδ T-cells expressing a Vγ9 chain paired with a non-Vδ2 chain
T2 sequence (Q99603 with tags, fused parts or gaps T7A limits assumed): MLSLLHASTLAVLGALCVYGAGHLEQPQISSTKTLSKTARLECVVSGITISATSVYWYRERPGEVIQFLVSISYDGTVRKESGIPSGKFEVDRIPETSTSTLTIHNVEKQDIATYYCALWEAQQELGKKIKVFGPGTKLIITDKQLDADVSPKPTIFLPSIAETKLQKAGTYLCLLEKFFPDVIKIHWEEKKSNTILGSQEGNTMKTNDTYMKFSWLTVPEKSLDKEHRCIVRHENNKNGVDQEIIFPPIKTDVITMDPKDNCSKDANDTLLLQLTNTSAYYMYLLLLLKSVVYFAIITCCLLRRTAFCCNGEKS
T2 sequence (P07766 23-207 partner): as the sequence (P07766 23-207 partner) above
T2 sequence (P09693 23-182 partner): as the sequence (P09693 23-182 partner) above
T2 sequence (P04234 22-171 partner): as the sequence (P04234 22-171 partner) above
T2 sequence (P20963 22-164 partner): as the sequence (P20963 22-164 partner) above
Conditions: Mean Fluorescence Index class; γδ T-cells expressing Vγ9 chain paired with non Vδ2 chain; cited from earlier work.
As to B1, the “Binding, Vγ9+” value is listed as “++ (“++” indicates an MFI above 20)”.
For B2, the “Binding, Vγ9+” value is given as “++ (“++” indicates an MFI above 20)”.
For B3, the “Binding, Vγ9+” value is on record as “− (“−” indicates a Mean Fluorescence Index (MFI) below 1.5)”.
Regarding B4, the “Binding, Vγ9+” value is given as “− (“−” indicates a Mean Fluorescence Index (MFI) below 1.5)”.
As for B5, the “Binding, Vγ9+” value was “+/− (“+/−” indicates an MFI of between 1.5 and 4.5)”.
For B6, the “Binding, Vγ9+” value is listed as “++ (“++” indicates an MFI above 20)”.

The target in another data set is T3, complete Vγ9Vδ2 TCR (Homo sapiens, UniProt A0JD36+Q99603, T7A).
T3 construct: host or cells: γδ T-cells expressing the complete Vγ9Vδ2 TCR
T3 sequence (Q99603 with tags, fused parts or gaps T7A limits assumed): as the sequence (Q99603 with tags, fused parts or gaps T7A limits assumed) above
T3 sequence (A0JD36 with tags, fused parts or gaps, stated change not applied): as the sequence (A0JD36 with tags, fused parts or gaps) above
T3 sequence (P07766 23-207 partner): as the sequence (P07766 23-207 partner) above
T3 sequence (P09693 23-182 partner): as the sequence (P09693 23-182 partner) above
T3 sequence (P04234 22-171 partner): as the sequence (P04234 22-171 partner) above
T3 sequence (P20963 22-164 partner): as the sequence (P20963 22-164 partner) above
Conditions: Mean Fluorescence Index class; cited from earlier work.
Regarding B1, the “Binding, Vγ9Vδ2+” value is reported as “++ (“++” indicates an MFI above 20)”.
For the molecule B2, the “Binding, Vγ9Vδ2+” value is “++ (“++” indicates an MFI above 20)”.
As to B3, the “Binding, Vγ9Vδ2+” value was “++ (“++” indicates an MFI above 20)”.
In the case of B4, the “Binding, Vγ9Vδ2+” value was “++ (“++” indicates an MFI above 20)”.
For the molecule B5, the “Binding, Vγ9Vδ2+” value is recorded as “++ (“++” indicates an MFI above 20)”.
Consider B6, for which the “Binding, Vγ9Vδ2+” value is “++ (“++” indicates an MFI above 20)”.

Another data set concerns γδ T-cells not expressing any of the Vγ9Vδ2 TCR chains. The settings on record: Mean Fluorescence Index class; cells not expressing any Vγ9Vδ2 TCR chain; cited from earlier work.
Take B1: the “Binding, Vγ9Vδ2−” value was “− (“−” indicates a Mean Fluorescence Index (MFI) below 1.5)”.
Turning to B2, the “Binding, Vγ9Vδ2−” value was “− (“−” indicates a Mean Fluorescence Index (MFI) below 1.5)”.
Regarding B3, the “Binding, Vγ9Vδ2−” value is on record as “− (“−” indicates a Mean Fluorescence Index (MFI) below 1.5)”.
As to B4, the “Binding, Vγ9Vδ2−” value is “− (“−” indicates a Mean Fluorescence Index (MFI) below 1.5)”.
Regarding B5, the “Binding, Vγ9Vδ2−” value is reported as “− (“−” indicates a Mean Fluorescence Index (MFI) below 1.5)”.
On to B6, for which the “Binding, Vγ9Vδ2−” value is recorded as “− (“−” indicates a Mean Fluorescence Index (MFI) below 1.5)”.
